Assay results taken from the supplement of paper PMC10567573.

B1: ZNF24 (parent)
chain: YGETCFPKGRFERKRNPSRKKQHI
B2: VPS39 (parent)
chain: QQVKCIITEEKVCMVCKKKIGNSA

Variants of: B1
Test: protein stability index of a GFP-peptide fusion (GPS, HEK-293T) (PSI 1-6); higher = more stable
Settings: c terminus: a fixed tail appended
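Further: lentivirally expressed fusions sorted by FACS into six bins by GFP to DsRed ratio, PSI derived from sequencing read proportions per bin multiplied by bin number.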

Protein stability index, by site and new letter:
Q22: N 2.94 | M 2.61 | T 2.67 | V 2.4 | C 2.14 | S 3.4 | H 2.33 | E 3.19 | R 2.69 | Y 2.46 | D 2.9 | A 2.97 | F 2.23 | L 2.4 | K 2.73 | I 2.28 | P 2.59 | G 2.95 | W 2.25
P17: T 3.09 | K 2.5 | W 2.52 | G 2.97 | H 3.04 | V 2.25 | Y 2.34 | F 2.78 | R 2.89 | S 2.62 | C 2.37 | Q 2.95 | E 2.93 | L 2.5 | M 2.79 | D 3.58 | N 3 | A 2.56
N16: D 2.15 | Y 2.82 | C 2.14 | R 2.63 | W 2.21 | V 1.94 | M 2.71 | A 2.5 | T 2.89 | P 2.31 | I 2.7 | F 2.23 | L 2.49 | G 2.5 | Q 2.87 | K 2.9 | E 2.89 | S 2.92
S18: A 2.55 | Q 3.03 | T 2.72 | P 2.48 | R 2.82 | K 3.1 | V 2.62 | I 2.88 | H 2.34 | F 2.71 | L 3.16 | D 3.07 | Y 2.02 | W 2.22 | M 2.77 | C 2.76 | G 3.53 | N 3.87 | E 3.63
I24: P 2.29 | L 2.78 | M 2.57 | G 2.64 | N 3.54 | K 3.22 | C 2.9 | Q 3.08 | F 2.71 | D 2.6 | T 3.42 | S 2.77 | V 3 | E 3.13 | A 3.43 | R 2.86 | W 2.3 | H 2.93 | Y 3
K21: L 1.95 | E 3.1 | P 2.61 | R 2.85 | F 2.09 | A 2.78 | T 2.97 | Y 3.23 | C 2.45 | H 2.73 | Q 2.59 | M 2.08 | W 2.17 | N 3.23 | D 3.11 | V 2.2 | G 3.16 | S 3.05 | I 2.38
R15: W 2.76 | V 2.83 | S 2.79 | T 2.46 | Q 2.88 | Y 2.02
H23: S 2.56 | F 2.95 | V 2.78 | M 3.14 | R 2.73 | C 2.85 | L 2.57 | Q 2.95 | I 2.57 | E 2.68 | N 2.85 | A 2.42 | P 3.1 | T 2.43 | W 2.3 | G 3.25 | K 3.22 | D 2.42 | Y 2.76
K20: M 2.08 | F 2.45 | N 3.08 | R 2.34 | V 2.66 | S 3.17 | L 2.05 | Q 2.34 | D 3.48 | I 2.63 | Y 2.76 | A 3.31 | P 2.49 | W 1.99 | H 3.09 | T 2.44 | G 3.29 | C 2.1 | E 2.77
R19: K 2.82 | Y 2.68 | H 3.22 | S 3.38 | L 2.06 | I 2 | A 3.07 | W 2.42 | P 3.28 | E 2.56 | F 1.83 | N 2.86 | T 3.5 | V 2.89 | G 2.69 | M 2.89 | D 2.95 | Q 2.26

Variants of: B2
Test: as above
Settings: c terminus: a fixed tail appended

Protein stability index, by site and new letter:
E9: A 2.22 | F 2.94 | K 2.49 | D 3.29 | M 1.33 | G 2 | C 1.8 | H 1.85 | I 1.81 | L 1.73 | N 1.87
V3: R 2.5 | Y 2.58 | P 3.49 | H 5.16 | N 2.8 | I 2.38 | T 2.82 | C 4.46 | F 1.89 | S 3.17 | L 2.77 | D 3.92 | K 2.89 | Q 3.32 | W 1.49 | A 2.81 | E 3.47 | G 3.01 | M 2.8
K4: E 3.28 | Q 2.77 | W 2.25 | T 2.44 | P 3.12 | F 1.42 | N 2.83 | M 1.83 | C 3.6 | Y 1.42 | S 2.22 | G 2.81 | R 2.53 | D 2.68 | H 2.44 | L 1.77 | I 1.19 | V 2.19 | A 2.72
C5: Q 3.07 | M 1.99 | Y 2.69 | L 2.34 | A 3.02 | H 3.21 | F 1.96 | G 2.82 | E 3.75 | V 2.22 | W 1.94 | R 3.48 | K 3.61 | T 3.16 | D 3.86 | I 2.24 | P 3.32 | N 2.79
T8: N 2.9 | K 2.47 | V 2.12 | F 1.52 | R 2.45 | A 2.45 | D 3.08 | E 3.48 | Q 3.34 | I 2.12 | W 2.87 | C 2.48 | L 2.16 | Y 2.6 | H 2.81 | G 3.42 | P 4.09
Q2: T 2.61 | W 2.72 | C 4.17 | K 2.59 | E 3.37 | D 3.15 | Y 2.37 | V 3.17 | I 1.45 | F 2.17 | H 3.05 | N 2.26 | A 2.94 | R 2.59 | M 2.93 | L 2.4 | S 3.77 | G 2.32 | P 2.77
I6: K 3.46 | S 3.5 | F 2.6 | R 2.6 | G 2.47 | C 3.34 | P 4.07 | A 2.67 | T 3.38 | L 2.45 | W 1.75 | Q 3.13 | Y 2.49 | E 3.96 | D 3.82 | M 2.93 | H 3.47 | V 3.05 | N 3.25
I7: N 2.84 | R 2.86 | Y 3.28 | T 2.69 | F 2.97 | L 2.11 | Q 2.76 | E 3.01 | K 2.9 | C 4.47 | H 4.39 | G 2.77 | M 3.54 | D 3.49 | V 3.4 | W 2.46 | P 4.23 | S 3.06 | A 3.38
Q1: R 2.24 | L 2.62 | K 1.88 | S 2.57 | I 1.9 | E 2.67 | W 1.98 | H 2.59 | A 1.95 | F 1.49 | P 2.79 | T 2.52 | C 2.4 | M 1.83 | Y 1.64 | V 1.11 | D 3.69 | G 3.05 | N 2.91
